In experiment [1] the target is microtubules of HEK293T cells (microtubule fraction), P68363;P07437. The experiment in a line: tubulin/microtubule fractionation of HEK293T lysates (immunoblot). As to conditions: chain shown with the change;. (A western blot detects proteins with antibodies after separation by electrophoresis.)
Experiment [2] concerns the target microtubules of osteoclasts (polymerized from endogenous tubulin) (mouse (endogenous in RAW264.7-derived osteoclasts)) (UniProt P05213). Description: co-sedimentation; tubulin/microtubule fractionation of Arhgap10 KO #28 osteoclasts expressing doxycycline-induced myc-ARHGAP10 constructs; immunoblot (Fig. S2).
Experiment [3] has as its target microtubules polymerized from pig brain tubulin (pig) (UniProt P02550). Description: co-sedimentation; in vitro; recombinant His GST protein (1 μM in the legends, 2 μM in the methods) with increasing concentrations of microtubules from pig brain tubulin (or BSA instead) in 1X BRB80, 1 mM DTT, 20 μM paclitaxel, 5 min at room temperature; 100,000g, 15 min, 30 °C through 40% glycerol; immunoblot of supernatant and pellet; apparent Kd, one site-specific binding fit.

Here are results for four molecules from paper PMC12509757.

Residue numbers refer to the chain shown, from its start. Names may count otherwise.

Sequence of microtubules of HEK293T cells (microtubule fraction), P68363;P07437 (chain, as listed by the source, chain 1 of 2): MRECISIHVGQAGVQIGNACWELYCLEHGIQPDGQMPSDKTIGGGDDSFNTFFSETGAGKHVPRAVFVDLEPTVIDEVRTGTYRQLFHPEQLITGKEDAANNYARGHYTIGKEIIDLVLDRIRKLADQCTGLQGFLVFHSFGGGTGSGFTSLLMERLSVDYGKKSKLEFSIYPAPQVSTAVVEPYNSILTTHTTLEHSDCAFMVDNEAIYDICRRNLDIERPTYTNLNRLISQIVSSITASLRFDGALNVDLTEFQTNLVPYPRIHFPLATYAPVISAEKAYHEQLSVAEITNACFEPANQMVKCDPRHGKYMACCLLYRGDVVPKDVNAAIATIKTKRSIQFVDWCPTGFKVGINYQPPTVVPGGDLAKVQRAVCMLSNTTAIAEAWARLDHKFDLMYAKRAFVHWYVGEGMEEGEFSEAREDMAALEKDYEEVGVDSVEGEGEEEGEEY
Sequence of microtubules of HEK293T cells (microtubule fraction), P68363;P07437 (chain, as listed by the source, chain 2 of 2): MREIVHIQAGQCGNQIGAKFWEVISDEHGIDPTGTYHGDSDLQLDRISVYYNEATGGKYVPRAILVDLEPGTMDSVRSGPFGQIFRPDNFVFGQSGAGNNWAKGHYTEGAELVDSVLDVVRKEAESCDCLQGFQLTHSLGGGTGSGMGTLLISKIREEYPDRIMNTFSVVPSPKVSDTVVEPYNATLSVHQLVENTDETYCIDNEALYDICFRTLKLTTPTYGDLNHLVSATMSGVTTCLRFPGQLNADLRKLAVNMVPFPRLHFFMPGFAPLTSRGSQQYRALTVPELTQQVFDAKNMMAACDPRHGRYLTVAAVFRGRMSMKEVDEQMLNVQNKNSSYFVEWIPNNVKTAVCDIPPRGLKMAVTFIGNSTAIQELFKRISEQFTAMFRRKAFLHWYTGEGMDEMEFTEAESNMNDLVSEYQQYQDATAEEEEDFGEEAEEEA
Sequence of microtubules of osteoclasts (polymerized from endogenous tubulin) (mouse (endogenous in RAW264.7-derived osteoclasts)) (P05213 whole entry, chain 1 of 2): as the sequence (chain, as listed by the source, chain 1 of 2) above
Sequence of microtubules of osteoclasts (polymerized from endogenous tubulin) (mouse (endogenous in RAW264.7-derived osteoclasts)) (P99024 whole entry, chain 2 of 2, further chain): as the sequence (chain, as listed by the source, chain 2 of 2) above

B1: myc-tagged full-length human ARHGAP10, WT (HEK293T), A1A4S6 K37E; K41E; K44E (protein)
chain: MGLQPLEFSDCYLDSPWFRERIRAHEAELERTNKFIEELIEDGENLIAATKSLSVAQRKFAHSLRDFKFEFIGDAVTDDERCIDASLREFSNFLKNLEEQREIMALSVTETLIKPLEKFRKEQLGAVKEEKKKFDKETEKNYSLIDKHLNLSAKKKDSHLQEADIQVEQNRQHFYELSLEYVCKLQEIQERKKFEFVEPMLSFFQGMFTFYHQGHELAKDFNHYKMELQINIQNTRNRFEGTRSEVEELMNKIRQNPKDHKRASQFTAEGYLYVQEKRPAPFGSSWVKHYCMYRKAAKKFNMIPFEHRSGGKLGDGEVFFLKECTKRHTDSIDRRFCFDIEAADRPGVSLTMQAFSEEERKQWLEALGGKEALSHSFNTAIIPRPEGNAQLDKMGFTIIRKCISAVETRGINDQGLYRVVGVSSKVQRLLSMLMDVKTCNEVDLENSADWEVKTITSALKQYLRSLPEPLMTYELHGDFIVPAKSGSPESRVNAIHFLVHKLPEKNKEMLDILVKHLTNVSNHSKQNLMTVANLGVVFGPTLMRPQEETVAALMDLKFQNIVVEILIENHEKIFRTPPDTTFPEPTCLSASPPNAPPRQSKRQGQRTKRPVAVYNLCLELEDGDNPYPSKEDTPTSSLDSLSSPSPVTTAVPGPPGPDKNHLLADGGSFGDWASTIPGQTRSSMVQWLNPQSPTTTSSNSAVTPLSPGSSPFPFSPPATVADKPPESIRSRKARAVYPCEAEHSSELSFEIGAIFEDVQTSREPGWLEGTLNGKRGLIPQNYVKLL
Turning to B1, the response in experiment [1] (parent: 59.1) was 26 % in MT.

B2: myc-tagged full-length ARHGAP10, WT, re-expressed in Arhgap10 KO osteoclasts (natural protein)
chain: B1 chain with E37K, E41K, E44K
In the case of B2, the percent associated with the microtubule-containing fraction in experiment [2] amounted to 50%.

B3: myc-tagged BAR-PH (aa 1-388) of ARHGAP10, WT, A1A4S6 K37E; K41E; K44E (protein)
chain: MGLQPLEFSDCYLDSPWFRERIRAHEAELERTNKFIEELIEDGENLIAATKSLSVAQRKFAHSLRDFKFEFIGDAVTDDERCIDASLREFSNFLKNLEEQREIMALSVTETLIKPLEKFRKEQLGAVKEEKKKFDKETEKNYSLIDKHLNLSAKKKDSHLQEADIQVEQNRQHFYELSLEYVCKLQEIQERKKFEFVEPMLSFFQGMFTFYHQGHELAKDFNHYKMELQINIQNTRNRFEGTRSEVEELMNKIRQNPKDHKRASQFTAEGYLYVQEKRPAPFGSSWVKHYCMYRKAAKKFNMIPFEHRSGGKLGDGEVFFLKECTKRHTDSIDRRFCFDIEAADRPGVSLTMQAFSEEERKQWLEALGGKEALSHSFNTAIIPRPEGN
Consider B3, for which the response in experiment [1] (parent: 60) was found to be 32.7 % in MT.

B4: His GST BAR-PH (aa 1-388) of ARHGAP10, WT (domain or fragment)
chain: B3 chain with E37K, E41K, E44K
In the case of B4, the Kd in experiment [3] turned out to be 1.27 µM.
